Measurements reported in article PMC2002144.

Target: epidermal growth factor receptor (EGFr) (human (endogenous in human breast tumours)) (UniProt P00533)
Assay: radioligand binding; labelled EGF on membrane protein of human breast tumours; multipoint Scatchard analyses and 2 point assays; saturation assay with 1 nM labelled EGF, 100 ug membrane protein, 100 nM unlabelled EGF for non-specific binding, volume 400 ul with buffer; constant of the high affinity site (2 binding sites found)

KD, high affinity site: 0.3 to 0.6 nM
Substance: epidermal growth factor (EGF), labelled (from UniProt P01132 977-1029) (ligand)
